Among the data in publication PMC3764172 are binding values, retold here.

This data set addresses T1, PGN_0753 (HaeR) response regulator, His6-tagged (Porphyromonas gingivalis ATCC 33277) (UniProt B2RIS7).
T1 sequence: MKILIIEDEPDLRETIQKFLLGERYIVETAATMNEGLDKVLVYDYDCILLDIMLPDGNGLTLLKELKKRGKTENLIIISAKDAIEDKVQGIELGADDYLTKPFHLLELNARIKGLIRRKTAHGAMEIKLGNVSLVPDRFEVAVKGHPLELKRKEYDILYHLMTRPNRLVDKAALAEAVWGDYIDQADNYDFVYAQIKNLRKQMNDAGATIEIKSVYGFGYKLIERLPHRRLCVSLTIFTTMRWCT
Kind of data set: EMSA. On the technique in general: Mobility shift assays separate free from complexed probe on a gel.
For “CATTTTGATGAAATTAGAATATGATTTTACTGTGTAGTACCCCTTCTGTATTTATGCATTATAAAGTCTTCTTGGGAGACAAAATTCACATAGAAACCGAAAGAAATACCACAATCGCAAATATATGCACTTTTCCTTTAAACGCGAATCAAAATATGCATAATATATTGCCCAAAAGCTGTCATTCGGATTGATTGATGGCCTCATATTGGGTTTGCA (double strand) [rgpA (PGN_1970) promoter]”, the binding result is “binds”.
Under “CCCTTGTCGCTTATATTGAAAACATGTTCTTTATAATCCGATACTCTTCTTAAATCGAATTTTTTCTCTAAATTGCGCCGCAACAAAACTCCTTGAGAAAAGTACCAATAGAAATAGAAGGTAGCATTTTGCCTTTAAATTCCTTTTCTTTTCTTGGATTGTTCTTGAAATGAATCTTATTTGTGGATCTTTTTTGTTTTTTTAACCCGGCCGTGGTTCTCTGAATCACGACCATAAATTGTTTTAAAGT (double strand) [kgp (PGN_1728) promoter]” stands “binds”.
Under “CGTATCCGGGTTATACGATCTGTCGTTTGGATATTGAAAATCATTTCTATCGGAACTATACGCTCCATATCGGTGCGGAGAACCTGTTCGATTATAAACCCAAAGCATTGGCATTCAATTCCCCGACATCACCCGGACGTATCATATACGGGTTGGTTCGGATCACTTTCTAATACGACTTATTTGCAACAGAAATATAATTCGCCACG (double strand) [hmuS upstream region]” stands “binds”; under “TAAGTGATTGAAAGACTTCGTTTGCTGAGATTCGAGCAAATCGTCTTGGGACAAAGATATAAAAAAGTGCCACCGAATTTGCACCTCGTCCCCAAAACACAGGCGTAAAATATCCGCACATCCCGGGACTGCAAAGGGAGAGCATGCTATTTCAGGAAAAATTCAGTTTTACCATGTTATATTTGTAAAAGAAGATCAATCCAAACAGGGCTATCCAGATG (double strand) [haeR (PGN_0753) promoter]”, “binds”; under “TAGCGTCATTCTTTTCATAGACTTTTCTTTTGCGTTAAACTTAAAATTATTACTGTTATGTTGTTTTCTTTTCTTCTCCGGTTTTACCCTAACCAAGGGAAGTCTCAAAAAGCCGCTACCGGCGTTAGACACAAGTCACGAAACTTCCACAACTGTCCTATGATACGGACAGCCACAAAACTAAATAAAAAAATGCAACCAGACTAATCCTATTATCC (double strand) [ragA (PGN_0293) promoter]”, “binds”.
